Article PMC5993284, “Peptide inhibitors of the anaphase promoting-complex that cause sensitivity to microtubule poison” (PLoS ONE, 2018)
Entries after “also recorded” stand apart in the source; their conditions may differ. Ends that are not written are not given here. * marks the point of attachment. Biotin = O=C1N[C@H]2[C@H](CS[C@H]2CCCCC(=O)*)N1

Assays:
APC/C^Cdh1 = APC/C^Cdh1 enzyme assay (ubiquitination of 35S-Pds1); type: biochemical, Saccharomyces cerevisiae; conditions: 220 μM peptide; 35S-Pds1 substrate; time course 0-60 minutes; vs buffer; n = 3
Protocol: Full-length, radio-labeled protein purifications were preformed as previously described. ^35S-Pds1 was prepared in a 500 μL IVT/T (In Vitro Transcription/Translation) reaction (Promega, USA), which contained 400 μL rabbit reticulocyte lysate, 20 μL of L-^35S-methionine (PerkinElmer, USA), 10 μg of plasmid DNA, and the remaining volume as nuclease-free ddH2O as recommended by the manufacturer. The reaction mixture was incubated for 2 hours at room temperature and gently mixed every 30 minutes. The reaction was added to pre-equilibrated IgG Sepharose beads (GE Healthcare, USA) in Bio-spin disposable chromatography columns (Bio-Rad, USA) for binding for 2 hours at room temperature. To ensure efficient binding, the beads were re-suspended several times every 30 minutes. After binding, the beads were washed with 5 mL wash buffer, containing 200 mM 4-(2-hydroxyethyl)-1-piperazineethanesulfonic acid (HEPES) at pH 8.0, 150 mM NaCl, 10% (v/v) glycerol, and 1 mM dithiothreitol (DTT). The ^35S-Pds1 was cleaved from the beads using TEV (Tobacco Etch Virus) protease in 1x TEV buffer (Invitrogen, USA) for 2 hours at room temperature, and the mixture was re-suspended several times every 30 minutes to promote efficient cleavage. The elution was collected and concentrated by employing an Amicon Ultra filter column (Millipore, Ireland). The concentrated ^35S-Pds1 was collected in a new tube, and stored at -20 °C.
The production of Cdc20 or Cdh1 was prepared by IVT/T reactions, where 16 μL of rabbit reticulocyte lysate, 20 μM L-methionine, 0.4 μg of plasmid DNA, and a volume of nuclease-free ddH2O for a total volume of 20 μL. This freshly synthesized Cdc20 or Cdh1 protein was used directly in all APC/C assays after a 1-hour synthesis reaction at room temperature. The APC/C was purified for enzyme assays from 1 mL of TAP-tagged Cdc16 yeast extract (SCSY51) where extract was mixed with 50 μL 50:50 slurry magnetic beads (Invitrogen, Norway) for 2 hours at 4 °C. After incubation, the beads were washed with 3 mL APC/C wash buffer (200 mM of HEPES, 150 mM of NaCl and 10% (v/v) of glycerol). APC/C bound to IgG magnetic beads was used directly in the enzyme assays.
APC/C assays were performed by adding the reaction contents in following order: 4.3 μL of QAH buffer, 20 μL of rabbit reticulocyte lysate containing Cdc20 or Cdh1 with or without an additional volume of recombinant checkpoint protein(s) or inhibitor peptides, 2.4 μL ubiquitin aldehyde (Boston Biochem, USA), APC/C, 16 μL pre-charged E1/E2/ATP/ubiquitin mix, and 13.3 μL of ^35S-Pds1 with QAH buffer (20 mM HEPES at pH 8.0, 100 mM NaCl, and 1 mM MgCl2). […]

[1] = test system: APC/C - co-factor Cdc20 interaction; test: Co-factor Cdc20 binding to APC/C (35S-Cdc20, APC/C on IgG beads); design: species or system Saccharomyces cerevisiae; conditions: 220 μM peptide, 1 hour, n = 3, vs buffer only
Protocol: (§1) One potential mechanism by which Cdc20-derived peptides and Tyc1 inhibit APC/C may be by blocking and/or disrupting the association between the co-factors Cdc20 and Cdh1 and the APC/C holo-enzyme. To test this hypothesis we produced radio-labeled full-length Cdc20 and Cdh1 co-factors by IVT/T and then incubated them with 220 μM Tyc1, DQ36 or PQ65 and APC/C that had been isolated from mitotic yeast extracts on IgG beads. Unbound peptide was washed away, and the amount of the remaining APC/C bound Cdc20 or Cdh1 was quantified. […] These observations indicate that Tyc1 and Mad2-binding motif peptides inhibit APC/C via a similar mechanism, leading to the disruption of the co-factor-APC/C interaction. This similar mechanism of action predicts that co-ever expression of Tyc1 and a Mad2-binding motif peptide in vivo would likely increase a cell’s sensitivity to microtubule poison.
(§2) Fig 14 Mad2-binding motif peptides and Tyc1 disrupt co-factor binding to APC/C and display an additive phenotype for microtubule poison sensitivity when co-ever expressed. A) ^35S-Methionine radio-labeled full-length Cdc20 or Cdh1 were made by IVT/T and pre-incubated with buffer only as a control, or Tyc1, DQ36 or PQ65 at a final concentration of 220 μM. […] The amount of APC/C-bound co-factor was measured by phosphor-imaging (n = 3). […]

[2] = test system: APC/C - co-factor Cdh1 interaction; test: Co-factor Cdh1 binding to APC/C (35S-Cdh1, APC/C on IgG beads); design: species or system Saccharomyces cerevisiae; conditions: 220 μM peptide, 1 hour, n = 3, vs buffer only
Protocol: as §1, §2

| Molecule | inhibition of APC/C^Cdh1 activity (in words) (APC/C^Cdh1) | amount of APC/C bound co-factor Cdc20 (in words) [1] | amount of APC/C bound co-factor Cdh1 (in words) [2] |
| --- | --- | --- | --- |
| DQ36-mut1: DQ36-mut1 where all 5 RILQY residues were changed to alanine AAAAA (Biotin-DMNKAAAAAMPEPPKCSSLRQKSYIMKKRTHYSYQQ) | displayed a similar loss in the ability to inhibit this APC/C^Cdh1 enzyme activity relative to wild type DQ36 |  |  |
| PQ65: 65 amino acid residue peptide called PQ65 (Cdc20 169–232) (peptide, UniProt P26309 169-232, looked up, fragment) PPNASPISHLRAQTKIVFKQNVAEACGLDMNKRILQYMPEPPKCSSLRQKSYIMKKRTHYSYQQ | observed to inhibit APC/C^Cdh1; also recorded: a significant level of APC/C^Cdh1 inhibition was observed | caused a significant decrease in the amount of APC/C bound co-factor Cdc20 and Cdh1 | caused a significant decrease in the amount of APC/C bound co-factor Cdc20 and Cdh1 |
